From the DeepSol protein solubility set

Experiment: soluble on expression in E. coli; label from the status in PepcDB or PDB records

Q: Which “soluble on expression in E. coli” value does the source give for “MGSDKIHHHHHHMQRENFGPAWLNENNAVMYFIVGTDIDVDIDDEIKTYEDIIQVDINENYHNITYKAIFWINEINKCRHGPKLLLKIDDDVHIDMIGLQFLIKRYSVMDDFMACRVISNGQVVRNNTSKWYLSKKDYKFPNLGTYCQGMVYFISGNLLPILHGNIEKSQFLWMDDWYVTRSLVGDYKISYYSLEQHSISPNTVREVYSSLMAIKTRKWRTIFAHFRPPQKFPMYRRRKIWANITEINNSCNILRKARINFVSAY” here?
A: Its value is “not soluble”.

Q: Which “soluble on expression in E. coli” value does the source give for “MTGNKIHNPLDRNHSELRDKKVSLNDGDPFTIALFGVDSDADRKKKGGGERSDSIMILSINPKTKKTEIVSIPRDTRAEIVGRGTTEKIAHAYAYGGPNMAVKSLEKLMNVPIDHYATIDMDGLHNMIDSIGGVDVVSNDTFTVDGVRFTKGQQTHVNGDQALKFIRSRKEEGAGGDFGRQQRQQIVLEAMANKIASPSSITHFNSLMNEIQNNVKTDLTLGDLNTIRSNYKDANDTINKHQLSGQGGIQSDGLYYFIPSEQSKAESTKLLKDNLELEHHHHHH” here?
A: Its value is “soluble”.

Q: Which “soluble on expression in E. coli” value does the source give for “MGSDKIHHHHHHMRFSRIPPIFANVVRQTHYRNYANGVIKPREFNKVMVANRGEIAIRVFRALTELNKTSVAIYAEQDKNSMHRLKADEAYLVGKGLPPVAAYLTIDQIIETALKHNIDAIHPGYGFLSERSDFAAACQNAGIVFIGPSPDVMARMGDKVAARQAAIEAGVQVVPGTPGPITTADEAVEFAKQYGTPIILKAAYGGGGRGIRRVDKLEEVEEAFRRSYSEAQAAFGDGSLFVEKFVERPRHIEVQLLGDHHGNIVHLYERDCSVQRRHQKVVEIAPAPALPEGVREKILADALRLARHVGYQNAGTVEFLVDQKGNYYFIEVNARLQVEHTVTEEITGVDLVQAQIRIAEGKSLDDLKLSQETIQTTGSAIQCRVTTEDPAKGFQPDSGRIEVFRSGEGMGIRLDSASAFAGSVISPHYDSLMVKVIASARNHPNAAAKMIRALKKFRIRGVKTNIPFLLNVLRQPSFLDASVDTYFIDEHPELFQFKPSQNRAQKLLNYLGEVKVNGPTTPLATDLKPAVVSPPIPYIPAGAKPPTGLRDVLVQRGPTEFAKEVRSRPGCMITDTTFRDAHQSLLATRVRTYDMAAISPFVAQSFNGLFSLENWGGATFDVSMRFLHECPWERLQTLRKLIPNIPFQCLLRGANAMGYSNYPDNVIYKFCELAVKNGMDVFRVFDSLNYLPNLLVGMEAVGKAGGVVEAAIAYTGDVTDKSRDKYDLKYYLNLADQLVKAQAHILSIKDMAGVLKPEAAKLLIGALRDKFPDIPIHVHTHDTSGAGVAAMLECAKAGADVVDAAVDSMSGMTSQPSMGAIVASLQGTKHDTGLSLDDISKYSAYWESTRQLYAPFECATTMKSGNADVYKHEIPGGQYTNLQFQAFSLGLGPQFDEVKRMYREANLVLGDIIKVTPSSKIVGDLAQFMVQNNLTRETLVDRADDLSFPKSVVDFMQGNVGQPPYGFPEPLRTKVLRGKPKVDGRPGENAKPVDLDAVKVELEEKHGRTLSEEDVMSYSMFPTVFDEFETFRQQYGPVDKLPTRLFLTGLEIAEEVDVEIESGKTLAIQLLAEGKLNKRGEREVFFDLNGQMRSIFVVDKEASKEIVTRPRALPGVRGHIGAPMPGDVLELKIKEGDKVTKKQPLFVLSAMKMEMVIDSPIAGTVKAIHAPQGTKCSAGDLVVEVEP” here?
A: The value was “not soluble”.

Q: For “MGSDKIHHHHHHMSWNSFGNFMSARSSALAEFGNMVANLVSAKNEKDISKRNEYYKQAGYSALLAFGNLASNIAPGSTSSHIVNGTNASVIASRLSGNISSAIQEHKDGKVNINRFQNILADLYSLGGLGSTLIEKNGNMQSWGIPLAIAGDIIAATAIATGDTGTISTEEFYNFDNWKGFGYELFEDWSRWVYDWLPDGWNLWKELDRNRCWILTERDGRRQFKWLGKPDPTRGWFDNGHECLKPWGNIFDSYRRGKYHVYDPLALDLDGDGIETVATKGFSGALFDHRNQGIRTATGWVSADDGLLVRDLNGNGIIDNGAELFGDNTKLADGSFAKHGYAALAELDSNGDNIINAADAAF”, which “soluble on expression in E. coli” value is on record?
A: The value was “not soluble”.

Q: Which “soluble on expression in E. coli” value does the source give for “KLIAATGCPTGIAHTFMAQEALEQAAKEKGVSIKVETHGQVGVENELTPAEIAGAKAVIIAADKDVQAERFAGKRVIEVSVADGIKKADQLIADALAGKGQIK” here?
A: The value was “not soluble”.

Q: With “VSELRLMAVHAHPDDESSKGAATLARYADEGHRVLVVTLTGGERGEILNPAMDLPDVHGRIAEIRRDEMTKAAEILGVEHTWLGFVDSGLPKGDLPPPLPDDCFARVPLEVSTEALVRVVREFRPHVMTTYDENGGYPHPDHIRCHQVSVAAYEAAGDFCRFPDAGEPWTVSKLYYVHGFLRERMQMLQDEFARHGQRGPFEQWLAYWDPDHDFLTSRVTTRVECSKYFSQRDDALRAHATQIDPNAEFFAAPLAWQERLWPTEEFELARSRIPARPPETELFAGIEP” as the sequence, how does the “soluble on expression in E. coli” value read?
A: The value was “soluble”.

Q: Which “soluble on expression in E. coli” value does the source give for “MSLAPLDLDKYVEIARLCKYLPENDLKRLCDYVCDLLLEESNVQPVSTPVTVCGDIHGQFYDLCELFRTGGQVPDTNYIFMGDFVDRGYYSLETFTYLLALKAKWPDRITLLRGNHESRQITQVYGFYDECQTKYGNANAWRYCTKVFDMLTVAALIDEQILCVHGGLSPDIKTLDQIRTIERNQEIPHKGAFCDLVWSDPEDVDTWAISPRGAGWLFGAKVTNEFVHINNLKLICRAHQLVHEGYKFMFDEKLVTVWSAPNYCYRCGNIASIMVFKDVNTREPKLFRAVPDSERVIPPRTTTPYFLEGHHHHHH” here?
A: Its value is “not soluble”.

Q: For “MKMNEIVASTQFPNTIETITKDLKALGVEKGMTIIVHSSLSSIGWISGGAVAVVEALMKVVTEEGTIIMPTQSSDLSDPKHWSRPPVPEDWWQIIRDNVPAFDSRITPTRGMGEIVECFRTYPNVVRSNHPLGSFAAWGKHAVEITMNHSLSMSFGEESPLRKIYDLDGYVLLIGVGYDSNTSVHLSEVRSGACELIQVGAPIIENGERVWKEFVEMDYESEKFVEIGVEFERKGTVKNGKIGNATCRLMKQRDIVDFGTEWFRKKN”, which “soluble on expression in E. coli” value is on record?
A: The value was “not soluble”.

Q: Which “soluble on expression in E. coli” value does the source give for “MSLVMVVDGSKLVRKLITDVLRRELPEVDVIGCVGIAEARQTLEAGTVDLVTTSLFLPDGDGLALARSVREEAGQAYVPVIVVSGDTQQHLVERRFTEYVTDYFDKALGHEALAAFIRGYVQPEPVSSGTVLYVEDSCVVAEATTRMLERQGLRVVHVLTAEDAFALLTAESLGRTEYRINLVLTDVTLKGELSGCDVVQRIRIDFSYGKRRLPVLVMTGDTNSQNQSELLRAGANDLVQKPIEERLLVTKVLFQLRLARLKDDLATIEGHHHHHH” here?
A: The value was “not soluble”.

Q: For “SRLYRHNLMEDVFNMENESFMQETRLMENEYSVNLPTRFYYKKRWNNGFVNIVNIFRACMVIGTPGSGKSYAIVNSYIRQLIAKGFAIYIYDYKFDDLSTIAYNSLLKNMDKYEVKPRFYVINFDDPRRSHRCNPINPEFMTDISDAYEASYTIMLNLNRTWIEKQGDFFVESPIILLAAIIWYLKIYKNGIYCTFPHAVELLNKPYSDLFTILTSYPELENYLSPFMDAWKGNAQDQLQGQIASAKIPLTRMISPQLYWVMTGNDFSLDINNPKEPKLLCVGNNPDRQNIYSAALGLYNSRIVKLINKKKQLKCAVIIDELPTIYFRGLDNLIATARSNKVGVLLGFQDFSQLTRDYGEKESKVIQNTVGNIFSGQVVGETAKTLSERFGKVLQQRQSVSINRQDVSTSINTQLDSLIPASKIANLSQGTFVGAVADNFDERIEQKIFHAEIVVDHTKISAEEKAYQKIPVINDFKDRNGNDIMMQQIQRNYDQIKADAQAIINEEMRRIKNDPELRKRLGLEDEKGKDPDKS”, which “soluble on expression in E. coli” value is on record?
A: The value was “not soluble”.

Q: For “MISPELVKEALKKKKVRSEEAFGLEYLRFNDDYKDIPRGTAIFKDFIIWGYPHIGRIFLLETGLREQFEAPFWVEEKVDGYNTRIFKYGDNYYALSRGGFICPFTTDRLPDLIDLRILDENPDLVICAEVAGPENPYIEESPPYVKEDVQLFVFDFMKKNEQGFLSQEEKMELIEKYNLPHVEILGRFTASEEGIKKIKEILKRFNEEGREGVVFKEDSERNKRAKYITSYANLMDIKTNAKNMLQLPPEYYTNRILRLVLFMYEEGLKTTEHLYEELGRAFIDGLFQAIEQFEKEHKVYKTFTCKFRKKENAIALLELLSKTSKHIQVKERRLEKEGDYWRLEFDKVFLNMTGLLGHLLSGGIVYD”, which “soluble on expression in E. coli” value is on record?
A: The value was “soluble”.

Q: For “MGSDKIHHHHHHMPNMGIEKLYVSQQLTDSAAGMTFTKPQYYKYVQELSLKPKVNSASAYAENRKVDQDTQFDSCDVSINLFQMTSSQRAFMLGQSLAGGGGAIGALNDKAPWITLLYKAPIKVDDTIYYRYGVIYKTQFQPPDDDYKTTEGKPDFSQVPKISGSAQPTEWSFKDGKLEKHPWEWHVDTCDPNCPENIDDTWFNSVSIPSLVTYGSLSLSASSPKDGATGISLDTKPSLTFNNPIMNATSILLYNVSDGATVNTTTSSDSSGKIITITPSTNLVANKNYVLVVQDVTDLYGQTLDTQLIRFTTATAAS”, which “soluble on expression in E. coli” value is on record?
A: The value was “not soluble”.

Q: With “MAHHHHHHMSSCKDSLSLMAMWGSIARFDPKHERSFEGPEKRLEVIMRVVDGTHVSGLLAHDDDVWQKVIDAICAHIVSREFNEYIRSYVLSESSLFVMKDRVILITCGTITLLNCVPLICEAVSTVCGEVEWVSFMHKNYSFPWEQKGPHLSMAEEFKTLRSHFPSGQPFIFGPIDSDHYFLYFHSDVVQPSCSDDAQLSMTMYGLDRNQTKHWYSDKMLPTGPETAVIREATGLSEVVDDSWILHDLQYEPCGYSINAIRGSEYQTIHITPEEHCSFASYETNTCALNYSKCICGVLRVFDPERFSVIVFIDPDSAVGKSYHSGGTIGVEPEYYPNYEAHHRTVNEYTPGHWVLKVNYVKRAVGTVGTSAASGAKE” as the sequence, how does the “soluble on expression in E. coli” value read?
A: Its value is “not soluble”.

Q: For “MNYKVTAEAIPDYQSKNAPISSYWMPDKFLEWSAENDKDLVYNQSRVPLTKRISPDKLSPSNQNQNKKTKIVALSMMNSQTSGNPSRGTTKFESYTFDYWQYIDTLVYWGGSSGEGIIVTPSADVIDEAHSNGVPVLGTIFLPPKEYGGKVDWVKTMLKKDEQGQYPFASQMVKVAKTYGFEGWFINEETQGLNADDAANMKALIQQVKKEDSSLQIMWYDAMTKDGKVDWQNQLNDQNATFVQDKAADAMFLNFWWTQNNLADQKLLEKSNLYAKNHNIDPYNIYAGIDVQAKDVQTPVKWNLLEKGNQATQTSIGLYAASATYTNASNWDDFQNRESAFWVNQKADPRQVDHSVNESWTGLSKYVLEKSAISGNEFNTNFNLGNGYNYFKAGQKISEMDWNDRSLAGILPSYRWIIDNEGKNKISPSFDFANAYNGGNSLKFMAEHLDAGKLEHHHHHH”, which “soluble on expression in E. coli” value is on record?
A: The value was “not soluble”.

Q: For “MSLHDYCLPCPTSLSGIAEVNPMSKPLVRWPINPLRTAVIVVDMQKVFCEPTGALYVKSTADIVQPIQKLLQAARAAQVMVIYLRHIVRGDGSDTGRMRDLYPNVDQILARHDPDVEVIEALAPQSDDVIVDKLFYSGFHNTDLDTVLRARDVDTIIVCGTVTNVCCETTIRDGVHREYKVIALSDANAAMDYPDVGFGAVSAADVQRISLTTIAYEFGEVTTTAEVIRREGHHHHHH”, which “soluble on expression in E. coli” value is on record?
A: Its value is “not soluble”.

Q: For “MGSDKIHHHHHHMASLTFLGAAQEVTGSCYLLETLDGVKVLLECGMRQGRREADNGNRAPFPFDPASIDAVVISHAHLDHSGLLPRLAAEGFKGPIFATEATCELLELMLLDSAHIQEKDAEWENRWRNRIGKPSIKPLYTQADTERALKLRRPISLGSTVAVARGVRVTFHNAGHILGSSIVEVQFHDQVQPRRLVFSGDLGNTCSPLMRAPSPLSRADVVMLESTYGDRDHRDSNDTLEELAAILDQAHRDGGNVLIPSFAVGRTQDLLYYLGRFYQEGRLPQQAVFLDSPMAARANGIYLRHSNEFDDRDREYIRGTGTTRLEEWLPVLRVTRSADESMAINRIKSGAVIIAGSGMCTGGRIVHHFKHNLWRPECHVVFPGFQARGTLGRNIVDGASAVRVFHQRIAVKAQIHTLGGFSAHAGQSQLLDWVGHFAHRPALYLIHGEREKMEALQSAIRERLDWDAEIPEPGERIEI”, which “soluble on expression in E. coli” value is on record?
A: The value was “not soluble”.
